# Results as given in patent US20170349638A1 (published 2017).
# Where no end group is shown, it is not given here.
# T1: GST-HDMX (human (HDMX), UniProt O15151 1-134)
# T1 chain: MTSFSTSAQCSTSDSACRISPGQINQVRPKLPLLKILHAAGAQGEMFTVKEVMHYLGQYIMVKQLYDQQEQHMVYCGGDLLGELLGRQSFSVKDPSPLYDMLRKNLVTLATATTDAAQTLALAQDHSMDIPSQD
# B1: GST-hDM2 (other)
# chain: MCNTNMSVPTDGAVTTSQIPASEQETLVRPKPLLLKLLKSVGAQKDTYTMKEVLFYLGQYIMTKRLYDEKQQHIVYCSNDLLGDLFGVPSFSVKEHRKIYTMIYRNLVVVNQQESSDSGTSVSENRCHLEGGSDQKDL
# B2: GST-hDMX (other)
# chain: T1 chain
# What was measured:
# SP-5 = test: Affinity selection MS
# SP-44 = test: Affinity selection MS
# GST-HDMX = target: T1, GST-HDMX; test: Competition ELISA
Kd (SP-5),Kd (SP-44),IC50 (GST-HDMX),Binder
25 nM,25 nM,,B1
90 nM,180 nM,,B2
,,175 nM,"QSQQTFANLWRLLAQN (not fully specified (residues 7, 14, N-terminus, C-terminus, bridges)) [peptide 46 (Table 9), Ac-QSQQTF%r8NLWRLL%QN-NH2]"
